Data set [1] has as its target T1, wtp53 (full-length wild-type p53) (Homo sapiens, UniProt P04637 1-393). In words: EMSA; 50 mM KCl; EMSA: 5 mM Tris pH 7.6, 0.5 mM EDTA, 0.01% Triton X-100, 50 mM KCl, 0.5 mM DTT, on ice 20 min (30 min for plasmids); oligo EMSA with 50 ng BSA and 2.5-20 ng pBSK/EcoRV competitor. Particulars: protein: recombinant, chain copies: 4, label: 5' 32P.
The target of data set [2] is p53CD (GSTp53CD, central DBD) (Homo sapiens, UniProt P04637 94-312). The description is as above. As to conditions: protein: recombinant; tags: GST; chain copies: 4; label: 5' 32P; blunt.
Chain of p53CD (GSTp53CD, central DBD) (P04637 94-312): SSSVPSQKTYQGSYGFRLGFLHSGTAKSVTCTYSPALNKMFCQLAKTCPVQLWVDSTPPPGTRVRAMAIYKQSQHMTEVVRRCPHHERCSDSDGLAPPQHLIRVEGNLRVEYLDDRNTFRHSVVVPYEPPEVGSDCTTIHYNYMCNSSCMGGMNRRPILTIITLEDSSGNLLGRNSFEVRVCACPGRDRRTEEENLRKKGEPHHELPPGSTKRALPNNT
For another data set, the target named is p53CΔ30 (Homo sapiens, UniProt P04637 1-363). The description is as above. As to conditions: protein: recombinant; chain copies: 4; label: 5' 32P; blunt.
Chain of p53CΔ30 (P04637 1-363, stated change not applied): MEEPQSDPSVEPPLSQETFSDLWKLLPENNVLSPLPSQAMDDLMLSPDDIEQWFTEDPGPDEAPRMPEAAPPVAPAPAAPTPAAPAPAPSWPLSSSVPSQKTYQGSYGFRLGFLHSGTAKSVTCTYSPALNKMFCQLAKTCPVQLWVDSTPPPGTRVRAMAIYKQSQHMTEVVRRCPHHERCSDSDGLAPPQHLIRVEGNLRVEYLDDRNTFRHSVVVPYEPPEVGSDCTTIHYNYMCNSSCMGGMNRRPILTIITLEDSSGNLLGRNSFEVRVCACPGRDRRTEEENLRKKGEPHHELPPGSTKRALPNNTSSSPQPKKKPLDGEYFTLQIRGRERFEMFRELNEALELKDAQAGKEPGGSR
The target of data set [3] is T1, wtp53 (full-length wild-type p53). In words: EMSA; 50 mM KCl; comparable to P1-30, lower than Pu52; EMSA: 5 mM Tris pH 7.6, 0.5 mM EDTA, 0.01% Triton X-100, 50 mM KCl, 0.5 mM DTT, on ice 20 min (30 min for plasmids); oligo EMSA with 50 ng BSA and 2.5-20 ng pBSK/EcoRV competitor. Particulars: protein: recombinant; chain copies: 4; label: 5' 32P; parallel G4, annealed in 50 mM KCl. (Mobility shift assays separate free from complexed probe on a gel.)

For data set [4] the target is unchanged. In words: EMSA; 50 mM KCl; comparable to P1-22, lower than Pu52; EMSA: 5 mM Tris pH 7.6, 0.5 mM EDTA, 0.01% Triton X-100, 50 mM KCl, 0.5 mM DTT, on ice 20 min (30 min for plasmids); oligo EMSA with 50 ng BSA and 2.5-20 ng pBSK/EcoRV competitor. Particulars: protein: recombinant; chain copies: 4; label: 5' 32P; parallel G4, 1:2:1 loops, annealed in 50 mM KCl.

For data set [5] the target is unchanged. In words: EMSA; 50 mM KCl; comparable to P1-50; EMSA: 5 mM Tris pH 7.6, 0.5 mM EDTA, 0.01% Triton X-100, 50 mM KCl, 0.5 mM DTT, on ice 20 min (30 min for plasmids); oligo EMSA with 50 ng BSA and 2.5-20 ng pBSK/EcoRV competitor. As to conditions: protein: recombinant; chain copies: 4; label: 5' 32P; parallel G4, 1:2:1 loops, annealed in 50 mM KCl.
The next data set deals with p53CT (GSTp53CT) (Homo sapiens, UniProt P04637 320-393). In words: EMSA; 50 mM KCl; EMSA: 5 mM Tris pH 7.6, 0.5 mM EDTA, 0.01% Triton X-100, 50 mM KCl, 0.5 mM DTT, on ice 20 min (30 min for plasmids); oligo EMSA with 50 ng BSA and 2.5-20 ng pBSK/EcoRV competitor. As to conditions: protein: recombinant; tags: GST; chain copies: 4; label: 5' 32P; parallel G4, 1:2:1 loops, annealed in 50 mM KCl.
Chain of p53CT (GSTp53CT) (P04637 320-393): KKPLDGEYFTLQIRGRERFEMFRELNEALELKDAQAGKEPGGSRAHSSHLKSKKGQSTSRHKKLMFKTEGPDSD

T1 sequence (P04637 whole entry): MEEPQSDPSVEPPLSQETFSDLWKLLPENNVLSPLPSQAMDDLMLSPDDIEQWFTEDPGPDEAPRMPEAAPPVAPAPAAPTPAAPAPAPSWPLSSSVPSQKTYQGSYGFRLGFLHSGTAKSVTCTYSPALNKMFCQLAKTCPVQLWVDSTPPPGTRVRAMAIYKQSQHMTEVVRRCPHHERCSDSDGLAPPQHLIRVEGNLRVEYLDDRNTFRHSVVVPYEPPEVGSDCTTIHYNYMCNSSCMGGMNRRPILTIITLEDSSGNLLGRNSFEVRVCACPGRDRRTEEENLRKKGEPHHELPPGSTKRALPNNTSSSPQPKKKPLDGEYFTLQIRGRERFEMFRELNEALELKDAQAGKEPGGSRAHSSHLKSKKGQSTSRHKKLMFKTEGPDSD

In the case of AAAAAAAAAAAAAAAAAAAAAAAAAAAAAAAAAAAAAAAAAAAAAAAAAA (ssDNA) [A50], the binding result in data set [1] was “no binding”.

B1: P1-30 (dsDNA)
DNA 1: GTAAGAGACATGCCTAGACATGCCTCATCG
DNA 2: CGATGAGGCATGTCTAGGCATGTCTCTTAC
Turning to B1, the binding result in data set [1] (blunt) and in data set [2] was “binds” each time.

B2: P1-22 (dsDNA)
DNA 1: GAGACATGCCTAGACATGCCTC
DNA 2: GAGGCATGTCTAGGCATGTCTC
On to B2, for which the binding result in data set [1] (blunt) and in data set [2] was “binds” in each case. As to AAAAAAAAAAAAAAAAAAAAAAAAA (ssDNA) [A25], the binding result in data set [1] is listed as “no binding”.

B3: P1-40 (dsDNA)
DNA 1: GATCGATAAGAGACATGCCTAGACATGCCTCTTGATATCG
DNA 2: CGATATCAAGAGGCATGTCTAGGCATGTCTCTTATCGATC
B3: the binding result (with p53CΔ30; in data set [1] (blunt); in data set [2]) was “binds” throughout. Consider TGGGGAGGGTGGGGAGGGTGGGGAAGGTGGGGA (structured_DNA) [Pu33], for which, in data set [3], the binding result is “binds”.

B4: P1-50 (dsDNA)
DNA 1: GACGGTATCGATAAGAGACATGCCTAGACATGCCTCTTGATATCGAATTC
DNA 2: GAATTCGATATCAAGAGGCATGTCTAGGCATGTCTCTTATCGATACCGTC
As for B4, the binding result in data set [1] (blunt) and in data set [2] was “binds” each time. Regarding TGAGGGTGGGGAGGGTGGGGAA (structured_DNA) [Pu22], in data set [4], the binding result was “binds”.

B5: Pu52 (structured_DNA)
DNA: TTGGGGCGCTTATGGGGAGGGTGGGGAGGGTGGGGAAGGTGGGGAGGAGACT
On to B5, for which the binding result (in data set [5]; with p53CT (GSTp53CT)) was “binds” in each case.

(Values after article PMC5064454, “Wild-type p53 binds to MYC promoter G-quadruplex”.)
